According to patent publication US20110014635:

What was measured:
[1] = test system: T1, Alcadein γ
T1 sequence: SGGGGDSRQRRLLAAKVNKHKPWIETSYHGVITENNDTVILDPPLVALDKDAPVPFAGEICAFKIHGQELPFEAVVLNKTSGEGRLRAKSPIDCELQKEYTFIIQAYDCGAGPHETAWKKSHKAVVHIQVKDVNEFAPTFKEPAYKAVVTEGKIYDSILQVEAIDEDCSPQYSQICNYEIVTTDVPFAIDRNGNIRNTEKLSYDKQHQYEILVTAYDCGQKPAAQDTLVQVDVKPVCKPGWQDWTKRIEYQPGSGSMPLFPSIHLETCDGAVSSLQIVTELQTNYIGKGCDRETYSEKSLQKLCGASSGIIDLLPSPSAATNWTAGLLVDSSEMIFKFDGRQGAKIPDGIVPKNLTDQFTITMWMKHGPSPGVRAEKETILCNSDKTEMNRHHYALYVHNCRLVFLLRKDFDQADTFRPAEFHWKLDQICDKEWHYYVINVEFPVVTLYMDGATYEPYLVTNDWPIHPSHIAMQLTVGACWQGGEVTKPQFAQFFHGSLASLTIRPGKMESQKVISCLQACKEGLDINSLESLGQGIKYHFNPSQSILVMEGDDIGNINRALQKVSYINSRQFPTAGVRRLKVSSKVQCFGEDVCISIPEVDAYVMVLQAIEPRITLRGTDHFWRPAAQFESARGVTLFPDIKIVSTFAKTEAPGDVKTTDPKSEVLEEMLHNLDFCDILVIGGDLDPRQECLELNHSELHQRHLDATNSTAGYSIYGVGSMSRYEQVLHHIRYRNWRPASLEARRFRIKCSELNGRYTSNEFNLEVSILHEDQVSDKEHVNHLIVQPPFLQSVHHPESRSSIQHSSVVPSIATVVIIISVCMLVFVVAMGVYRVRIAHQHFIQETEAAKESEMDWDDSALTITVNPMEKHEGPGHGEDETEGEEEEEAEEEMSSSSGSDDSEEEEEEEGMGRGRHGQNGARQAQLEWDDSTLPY

[2] = test system: T2, Alcadein β
T2 sequence: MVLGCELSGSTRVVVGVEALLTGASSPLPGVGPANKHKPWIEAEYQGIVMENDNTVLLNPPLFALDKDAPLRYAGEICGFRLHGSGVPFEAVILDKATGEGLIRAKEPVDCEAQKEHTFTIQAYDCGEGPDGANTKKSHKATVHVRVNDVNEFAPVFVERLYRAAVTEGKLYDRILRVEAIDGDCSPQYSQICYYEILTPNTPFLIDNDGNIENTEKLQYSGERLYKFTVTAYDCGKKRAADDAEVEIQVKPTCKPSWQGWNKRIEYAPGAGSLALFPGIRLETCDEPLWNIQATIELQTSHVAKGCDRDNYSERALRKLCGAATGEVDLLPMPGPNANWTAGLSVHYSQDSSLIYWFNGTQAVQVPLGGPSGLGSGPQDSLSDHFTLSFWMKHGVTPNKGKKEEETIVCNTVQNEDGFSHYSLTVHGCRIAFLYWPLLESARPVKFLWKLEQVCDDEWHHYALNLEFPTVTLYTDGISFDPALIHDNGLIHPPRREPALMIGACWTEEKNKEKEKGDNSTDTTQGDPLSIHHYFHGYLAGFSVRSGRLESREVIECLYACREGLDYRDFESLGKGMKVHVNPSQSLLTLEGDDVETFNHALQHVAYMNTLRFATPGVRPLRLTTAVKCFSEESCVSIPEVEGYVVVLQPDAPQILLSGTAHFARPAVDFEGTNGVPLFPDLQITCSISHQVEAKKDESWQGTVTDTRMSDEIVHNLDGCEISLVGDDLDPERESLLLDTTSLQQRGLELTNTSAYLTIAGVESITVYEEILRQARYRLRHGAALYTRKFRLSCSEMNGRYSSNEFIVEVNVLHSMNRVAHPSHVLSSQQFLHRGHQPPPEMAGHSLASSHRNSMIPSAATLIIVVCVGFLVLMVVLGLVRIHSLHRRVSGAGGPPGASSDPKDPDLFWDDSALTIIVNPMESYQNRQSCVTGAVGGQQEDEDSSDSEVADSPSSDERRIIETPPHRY

[3] = test system: T3, Alcadein α (human Alcα1)
T3 sequence: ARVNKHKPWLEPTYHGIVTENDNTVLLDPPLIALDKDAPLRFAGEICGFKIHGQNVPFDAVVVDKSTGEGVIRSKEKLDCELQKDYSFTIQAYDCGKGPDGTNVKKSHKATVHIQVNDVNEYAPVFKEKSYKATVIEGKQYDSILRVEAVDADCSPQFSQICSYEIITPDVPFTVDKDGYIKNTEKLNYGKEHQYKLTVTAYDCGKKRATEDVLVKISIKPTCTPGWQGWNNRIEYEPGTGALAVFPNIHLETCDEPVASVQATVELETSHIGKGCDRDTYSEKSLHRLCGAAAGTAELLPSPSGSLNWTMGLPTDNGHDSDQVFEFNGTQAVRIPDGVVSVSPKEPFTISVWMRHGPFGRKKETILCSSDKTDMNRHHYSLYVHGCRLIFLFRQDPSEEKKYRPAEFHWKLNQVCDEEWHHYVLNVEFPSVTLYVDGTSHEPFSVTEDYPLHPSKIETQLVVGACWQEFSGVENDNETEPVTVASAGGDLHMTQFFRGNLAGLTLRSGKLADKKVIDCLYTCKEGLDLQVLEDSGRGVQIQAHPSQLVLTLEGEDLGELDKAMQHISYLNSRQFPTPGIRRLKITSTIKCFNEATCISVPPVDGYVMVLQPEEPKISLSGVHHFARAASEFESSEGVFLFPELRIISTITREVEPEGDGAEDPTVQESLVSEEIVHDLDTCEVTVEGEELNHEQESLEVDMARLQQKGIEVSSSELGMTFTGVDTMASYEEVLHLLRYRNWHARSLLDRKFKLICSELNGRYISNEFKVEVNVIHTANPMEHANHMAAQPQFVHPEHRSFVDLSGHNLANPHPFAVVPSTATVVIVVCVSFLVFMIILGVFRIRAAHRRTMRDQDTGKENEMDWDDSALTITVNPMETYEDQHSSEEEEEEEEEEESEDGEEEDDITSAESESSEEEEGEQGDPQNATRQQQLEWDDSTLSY

Substance: presenilin (endogenous, HEK293 cells)
- fragments containing the C-terminal from incubated membrane fractions, Western blot [1]: such fragments were not detected in the samples to which the presenilin inhibitor was added
- fragments containing the C-terminal from incubated membrane fractions, Western blot [2]: such fragments were not detected in the samples to which the presenilin inhibitor was added
- fragments containing the C-terminal (Alcα-ICD) from incubated membrane fractions, Western blot [3]: such fragments were not detected in the samples to which the presenilin inhibitor was added
